Laboratory results taken from the supplement of paper PMC5998384.

How the values were obtained:
HeLa Kyoto [1] = test: solubility change mitosis vs G1/S (difference of NP-40 vs SDS log2 ratios) (log2 ratio difference); higher = more soluble in mitosis
HeLa Kyoto [2] = test: thermal stability score vs G1/S (z-score of summed log2 fold changes over temperatures); higher = more thermally stable than in G1/S
HeLa Kyoto [3] = test: melting temperature (median over replicates), in situ; higher = more thermally stable
HeLa Kyoto [4] = test: solubility in G1/S (NP-40 vs SDS abundance) (log2 ratio); higher = more soluble; conditions: cell cycle stage: G1/S
[5] = cell cycle stage: early G1 (4.5 h after nocodazole release)
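Throughout, for melting temperature (median over replicates), in situ: HeLa Kyoto cells synchronized by double thymidine or nocodazole block, proteins quantified by TMT10plex mass spectrometry, three independent biological replicates.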
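Throughout, for solubility change mitosis vs G1/S (difference of NP-40 vs SDS log2 ratios): synchronized HeLa Kyoto cells (double thymidine block for G1/S, nocodazole release for mitosis), protein amounts in NP-40 versus SDS lysates quantified by mass spectrometry, three biological replicates.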
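Throughout, for solubility in G1/S (NP-40 vs SDS abundance): HeLa Kyoto cells arrested at G1/S by double thymidine block, proteins quantified by TMT10plex mass spectrometry in mild NP-40 versus SDS extracts, three biological replicates.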
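Throughout, for thermal stability score vs G1/S (z-score of summed log2 fold changes over temperatures): synchronized HeLa Kyoto cells, proteins quantified by TMT10plex mass spectrometry, three biological replicates, mitosis taken 0.5 h after nocodazole release, G1/S directly after double thymidine block.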

Sequence	solubility change mitosis (log2) (HeLa Kyoto [1])	thermal stability score (HeLa Kyoto [2]; [5])	thermal stability score (HeLa Kyoto [2]; cell cycle stage: mitosis)	melting temperature (HeLa Kyoto [3]; cell cycle stage: G1/S)	melting temperature (HeLa Kyoto [3]; cell cycle stage: mitosis)	solubility in G1/S (log2) (HeLa Kyoto [4])
MEKSNETNGYLDSAQAGPAAGPGAPGTAAGRARRCAGFLRRQALVLLTVSGVLAGAGLGAALRGLSLSRTQVTYLAFPGEMLLRMLRMIILPLVVCSLVSGAASLDASCLGRLGGIAVAYFGLTTLSASALAVALAFIIKPGSGAQTLQSSDLGLEDSGPPPVPKETVDSFLDLARNLFPSNLVVAAFRTYATDYKVVTQNSSSGNVTHEKIPIGTEIEGMNILGLVLFALVLGVALKKLGSEGEDLIRFFNSLNEATMVLVSWIMWYVPVGIMFLVGSKIVEMKDIIVLVTSLGKYIFASILGHVIHGGIVLPLIYFVFTRKNPFRFLLGLLAPFATAFATCSSSATLPSMMKCIEENNGVDKRISRFILPIGATVNMDGAAIFQCVAAVFIAQLNNVELNAGQIFTILVTATASSVGAAGVPAGGVLTIAIILEAIGLPTHDLPLILAVDWIVDRTTTVVNVEGDALGAGILHHLNQKATKKGEQELAEVKVEAIPNCKSEEETSPLVTHQNPAGPVASAPELESKESVL [SLC1A4]	0.0714	-1.93	-4.67	58.9 °C	62.8 °C	-0.527
MEKSRMNLPKGPDTLCFDKDEFMKEDFDVDHFVSDCRKRVQLEELRDDLELYYKLLKTAMVELINKDYADFVNLSTNLVGMDKALNQLSVPLGQLREEVLSLRSSVSEGIRAVDERMSKQEDIRKKKMCVLRLIQVIRSVEKIEKILNSQSSKETSALEASSPLLTGQILERIATEFNQLQFHAVQSKGMPLLDKVRPRIAGITAMLQQSLEGLLLEGLQTSDVDIIRHCLRTYATIDKTRDAEALVGQVLVKPYIDEVIIEQFVESHPNGLQVMYNKLLEFVPHHCRLLREVTGGAISSEKGNTVPGYDFLVNSVWPQIVQGLEEKLPSLFNPGNPDAFHEKYTISMDFVRRLERQCGSQASVKRLRAHPAYHSFNKKWNLPVYFQIRFREIAGSLEAALTDVLEDAPAESPYCLLASHRTWSSLRRCWSDEMFLPLLVHRLWRLTLQILARYSVFVNELSLRPISNESPKEIKKPLVTGSKEPSITQGNTEDQGSGPSETKPVVSISRTQLVYVVADLDKLQEQLPELLEIIKPKLEMIGFKNFSSISAALEDSQSSFSACVPSLSSKIIQDLSDSCFGFLKSALEVPRLYRRTNKEVPTTASSYVDSALKPLFQLQSGHKDKLKQAIIQQWLEGTLSESTHKYYETVSDVLNSVKKMEESLKRLKQARKTTPANPVGPSGGMSDDDKIRLQLALDVEYLGEQIQKLGLQASDIKSFSALAELVAAAKDQATAEQP [COG2]	-0.0298	0.195	0.834	50.2 °C	49.4 °C	0.0645
MEKTELIQKAKLAEQAERYDDMATCMKAVTEQGAELSNEERNLLSVAYKNVVGGRRSAWRVISSIEQKTDTSDKKLQLIKDYREKVESELRSICTTVLELLDKYLIANATNPESKVFYLKMKGDYFRYLAEVACGDDRKQTIDNSQGAYQEAFDISKKEMQPTHPIRLGLALNFSVFYYEILNNPELACTLAKTAFDEAIAELDTLNEDSYKDSTLIMQLLRDNLTLWTSDSAGEECDAAEGAEN [YWHAQ]	0.372	0.526	2.69	51.4 °C	52 °C	0.435
MEKTLETVPLERKKREKEQFRKLFIGGLSFETTEESLRNYYEQWGKLTDCVVMRDPASKRSRGFGFVTFSSMAEVDAAMAARPHSIDGRVVEPKRAVAREESGKPGAHVTVKKLFVGGIKEDTEEHHLRDYFEEYGKIDTIEIITDRQSGKKRGFGFVTFDDHDPVDKIVLQKYHTINGHNAEVRKALSRQEMQEVQSSRSGRGGNFGFGDSRGGGGNFGPGPGSNFRGGSDGYGSGRGFGDGYNGYGGGPGGGNFGGSPGYGGGRGGYGGGGPGYGNQGGGYGGGYDNYGGGNYGSGNYNDFGNYNQQPSNYGPMKSGNFGGSRNMGGPYGGGNYGPGGSGGSGGYGGRSRY [HNRNPA2B1]	0.321	5.29	6.68	48.1 °C	49 °C	-0.087
MEKTQETVQRILLEPYKYLLQLPGKQVRTKLSQAFNHWLKVPEDKLQIIIEVTEMLHNASLLIDDIEDNSKLRRGFPVAHSIYGIPSVINSANYVYFLGLEKVLTLDHPDAVKLFTRQLLELHQGQGLDIYWRDNYTCPTEEEYKAMVLQKTGGLFGLAVGLMQLFSDYKEDLKPLLNTLGLFFQIRDDYANLHSKEYSENKSFCEDLTEGKFSFPTIHAIWSRPESTQVQNILRQRTENIDIKKYCVHYLEDVGSFEYTRNTLKELEAKAYKQIDARGGNPELVALVKHLSKMFKEENE [GGPS1]	-0.0913	-1.73	-1.98	55.2 °C	56 °C	0.163
MELEDGVVYQEEPGGSGAVMSERVSGLAGSIYREFERLIGRYDEEVVKELMPLVVAVLENLDSVFAQDQEHQVELELLRDDNEQLITQYEREKALRKHAEEKFIEFEDSQEQEKKDLQTRVESLESQTRQLELKAKNYADQISRLEEREAELKKEYNALHQRHTEMIHNYMEHLERTKLHQLSGSDQLESTAHSRIRKERPISLGIFPLPAGDGLLTPDAQKGGETPGSEQWKFQELSQPRSHTSLKVSNSPEPQKAVEQEDELSDVSQGGSKATTPASTANSDVATIPTDTPLKEENEGFVKVTDAPNKSEISKHIEVQVAQETRNVSTGSAENEEKSEVQAIIESTPELDMDKDLSGYKGSSTPTKGIENKAFDRNTESLFEELSSAGSGLIGDVDEGADLLGMGREVENLILENTQLLETKNALNIVKNDLIAKVDELTCEKDVLQGELEAVKQAKLKLEEKNRELEEELRKARAEAEDARQKAKDDDDSDIPTAQRKRFTRVEMARVLMERNQYKERLMELQEAVRWTEMIRASRENPAMQEKKRSSIWQFFSRLFSSSSNTTKKPEPPVNLKYNAPTSHVTPSVKKRSSTLSQLPGDKSKAFDFLSEETEASLASRREQKREQYRQVKAHVQKEDGRVQAFGWSLPQKYKQVTNGQGENKMKNLPVPVYLRPLDEKDTSMKLWCAVGVNLSGGKTRDGGSVVGASVFYKDVAGLDTEGSKQRSASQSSLDKLDQELKEQQKELKNQEELSSLVWICTSTHSATKVLIIDAVQPGNILDSFTVCNSHVLCIASVPGARETDYPAGEDLSESGQVDKASLCGSMTSNSSAETDSLLGGITVVGCSAEGVTGAATSPSTNGASPVMDKPPEMEAENSEVDENVPTAEEATEATEGNAGSAEDTVDISQTGVYTEHVFTDPLGVQIPEDLSPVYQSSNDSDAYKDQISVLPNEQDLVREEAQKMSSLLPTMWLGAQNGCLYVHSSVAQWRKCLHSIKLKDSILSIVHVKGIVLVALADGTLAIFHRGVDGQWDLSNYHLLDLGRPHHSIRCMTVVHDKVWCGYRNKIYVVQPKAMKIEKSFDAHPRKESQVRQLAWVGDGVWVSIRLDSTLRLYHAHTYQHLQDVDIEPYVSKMLGTGKLGFSFVRITALMVSCNRLWVGTGNGVIISIPLTETNKTSGVPGNRPGSVIRVYGDENSDKVTPGTFIPYCSMAHAQLCFHGHRDAVKFFVAVPGQVISPQSSSSGTDLTGDKAGPSAQEPGSQTPLKSMLVISGGEGYIDFRMGDEGGESELLGEDLPLEPSVTKAERSHLIVWQVMYGNE [SPAG9]	-0.168	0.672	0.413	51.3 °C	50.6 °C	0.00549
MELPSGPGPERLFDSHRLPGDCFLLLVLLLYAPVGFCLLVLRLFLGIHVFLVSCALPDSVLRRFVVRTMCAVLGLVARQEDSGLRDHSVRVLISNHVTPFDHNIVNLLTTCSTPLLNSPPSFVCWSRGFMEMNGRGELVESLKRFCASTRLPPTPLLLFPEEEATNGREGLLRFSSWPFSIQDVVQPLTLQVQRPLVSVTVSDASWVSELLWSLFVPFTVYQVRWLRPVHRQLGEANEEFALRVQQLVAKELGQTGTRLTPADKAEHMKRQRHPRLRPQSAQSSFPPSPGPSPDVQLATLAQRVKEVLPHVPLGVIQRDLAKTGCVDLTITNLLEGAVAFMPEDITKGTQSLPTASASKFPSSGPVTPQPTALTFAKSSWARQESLQERKQALYEYARRRFTERRAQEAD [AUP1]	-0.102	0.525	0.836	50.9 °C	50.6 °C	-0.262
MELSQMSELMGLSVLLGLLALMATAAVARGWLRAGEERSGRPACQKANGFPPDKSSGSKKQKQYQRIRKEKPQQHNFTHRLLAAALKSHSGNISCMDFSSNGKYLATCADDRTIRIWSTKDFLQREHRSMRANVELDHATLVRFSPDCRAFIVWLANGDTLRVFKMTKREDGGYTFTATPEDFPKKHKAPVIDIGIANTGKFIMTASSDTTVLIWSLKGQVLSTINTNQMNNTHAAVSPCGRFVASCGFTPDVKVWEVCFGKKGEFQEVVRAFELKGHSAAVHSFAFSNDSRRMASVSKDGTWKLWDTDVEYKKKQDPYLLKTGRFEEAAGAAPCRLALSPNAQVLALASGSSIHLYNTRRGEKEECFERVHGECIANLSFDITGRFLASCGDRAVRLFHNTPGHRAMVEEMQGHLKRASNESTRQRLQQQLTQAQETLKSLGALKK [TBL2]	0.307	0.379	-0.532	51 °C	50.4 °C	-0.571
MELTIFILRLAIYILTFPLYLLNFLGLWSWICKKWFPYFLVRFTVIYNEQMASKKRELFSNLQEFAGPSGKLSLLEVGCGTGANFKFYPPGCRVTCIDPNPNFEKFLIKSIAENRHLQFERFVVAAGENMHQVADGSVDVVVCTLVLCSVKNQERILREVCRVLRPGGAFYFMEHVAAECSTWNYFWQQVLDPAWHLLFDGCNLTRESWKALERASFSKLKLQHIQAPLSWELVRPHIYGYAVK [METTL7A]	-0.0939	0.77	-0.471	57.6 °C	56.8 °C	-0.294
MEMGRRIHLELRNRTPSDVKELVLDNSRSNEGKLEGLTDEFEELEFLSTINVGLTSIANLPKLNKLKKLELSDNRVSGGLEVLAEKCPNLTHLNLSGNKIKDLSTIEPLKKLENLKSLDLFNCEVTNLNDYRENVFKLLPQLTYLDGYDRDDKEAPDSDAEGYVEGLDDEEEDEDEEEYDEDAQVVEDEEDEDEEEEGEEEDVSGEEEEDEEGYNDGEVDDEEDEEELGEEERGQKRKREPEDEGEDDD [ANP32A]	0.466	0.819	2.54	52.3 °C	53.2 °C	-0.297
MEMPLPPDDQELRNVIDKLAQFVARNGPEFEKMTMEKQKDNPKFSFLFGGEFYSYYKCKLALEQQQLICKQQTPELEPAATMPPLPQPPLAPAAPIPPAQGAPSMDELIQQSQWNLQQQEQHLLALRQEQVTAAVAHAVEQQMQKLLEETQLDMNEFDNLLQPIIDTCTKDAISAGKNWMFSNAKSPPHCELMAGHLRNRITADGAHFELRLHLIYLINDVLHHCQRKQARELLAALQKVVVPIYCTSFLAVEEDKQQKIARLLQLWEKNGYFDDSIIQQLQSPALGLGQYQATLINEYSSVVQPVQLAFQQQIQTLKTQHEEFVTSLAQQQQQQQQQQQQLQMPQMEAEVKATPPPPAPPPAPAPAPAIPPTTQPDDSKPPIQMPGSSEYEAPGGVQDPAAAGPRGPGPHDQIPPNKPPWFDQPHPVAPWGQQQPPEQPPYPHHQGGPPHCPPWNNSHEGMWGEQRGDPGWNGQRDAPWNNQPDAAWNSQFEGPWNSQHEQPPWGGGQREPPFRMQRPPHFRGPFPPHQQHPQFNQPPHPHNFNRFPPRFMQDDFPPRHPFERPPYPHRFDYPQGDFPAEMGPPHHHPGHRMPHPGINEHPPWAGPQHPDFGPPPHGFNGQPPHMRRQGPPHINHDDPSLVPNVPYFDLPAGLMAPLVKLEDHEYKPLDPKDIRLPPPMPPSERLLAAVEAFYSPPSHDRPRNSEGWEQNGLYEFFRAKMRARRRKGQEKRNSGPSRSRSRSKSRGRSSSRSNSRSSKSSGSYSRSRSRSCSRSYSRSRSRSRSRSRSSRSRSRSQSRSRSKSYSPGRRRRSRSRSPTPPSSAGLGSNSAPPIPDSRLGEENKGHQMLVKMGWSGSGGLGAKEQGIQDPIKGGDVRDKWDQYKGVGVALDDPYENYRRNKSYSFIARMKARDECK [CHERP]	0.513	1.81	4.57	47.6 °C	49.2 °C	-0.174
